Tests used:
Type in all cases: biochemical
βH crystallin = assay: Chaperone assay, thermal aggregation of βH crystallin at 50° C.; conditions: 50:1 molar ratio of peptide:βH crystallin, sixty minutes, 340 nm
Method: The chaperone activity of the peptides was measured as their ability to protect against the thermal aggregation of three chaperone target proteins βH crystallin, ADH and CS in chaperone assays performed at 50° C. (FIG. 19). A non-interactive αB crystallin sequence 111HGKHEERQDE120 was used as the negative control in the chaperone assays (FIG. 19). Based on near and far UVCD, the three target proteins unfolded in the order: CS>>>ADH>>βH crystallin when they were heated at 50° C. for sixty minutes (FIGS. 15 and 16). The thermal aggregation of βH crystallin, ADH and CS was measured as light scattering at λ=340 nm in the presence and absence of each peptide. The chaperone activity of each peptide was calculated as percent protection in which the aggregation of each target protein in the absence of any peptides was set at 0% protection (FIG. 19). The interactive peptides […] and 131LTITSSLSDGV141 were effective inhibitors of aggregation of all three chaperone target proteins.
A (top left): thermal aggregation of chaperone target proteins βH crystallin, ADH and CS in the absence of peptides was measured as light scattering at λ=340 nm. Each target protein was heated at 50° C. for sixty minutes in the absence or presence of one of the peptides. […] The chaperone activity of each peptide was calculated as percent protection in which the aggregation of each target protein in the absence of any peptides was set at 0% protection. The ability of the 73DRFSVNLDVKHFS85, 131LTITSSLSDGV141 and 111HGKHEERQDE120 to protect against the thermal aggregation of βH crystallin (B: top right), ADH (C: bottom left) and CS (D: bottom right) were tested in vitro (vertical bars). […] A 10:1 molar ratio of peptide:target protein was sufficient in conferring significant protection against the aggregation of CS by 73DRFSVNLDVKHFS85 and 131LTITSSLSDGV141.

γD crystallin = target: T1, γD crystallin (Homo sapiens, UniProt P07320); assay: γD crystallin Thioflavin T fluorescence (fibrillization); conditions: 1:1 γD crystallin:peptide; for Δfluorescence (γD crystallin): Thioflavin T, 50° C., 72 hours
T1 sequence (P07320 2-174): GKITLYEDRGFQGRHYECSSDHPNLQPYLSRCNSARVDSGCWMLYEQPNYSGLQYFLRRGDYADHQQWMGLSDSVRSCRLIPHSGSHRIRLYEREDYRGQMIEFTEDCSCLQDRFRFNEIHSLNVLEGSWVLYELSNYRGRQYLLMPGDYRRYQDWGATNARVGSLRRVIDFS
Method: γD crystallin Thioflaviin T fluorescence. γD crystallin fibrils were formed in a similar way to that of γ crystalline. Meehan et al., J Biol Chem 279: 3413-3419, 2004. Peptides were dissolved to 9.1 mM in TFE and diluted to 0.91 mM stock solutions in 10% TFE, pH 2.0. 3.5 mg of Thioflavin T was dissolved in 100 μl of 50 mM Glycine pH 8.5. A stock solution of 1 mg/ml (0.22 mM) Aβ was prepared. 20 μl Aβ, 5 μl chaperone, 2 μl Thioflavin T was mixed with 73 μl 10% TFE, pH 2.0. Fluorescence was read using a Beckman Coultier DTX 880 multimode detector. Samples were heated at 50° C. for 72 hours and fluorescence was read again.
The fibrillization of γD crystallin was measured as fluorescence of the fluorescent dye Thioflavin T from solutions containing 1:1 monomeric molar ratio of γD crystallin:peptide. In the absence of fibrils Thioflavin T had little or no fluorescence. The fluorescence of the Thioflavin T bound to γD crystallin fibrils in the absence of any other molecule after 72 hrs was set to 100%. […] Fibril formation=ΔfluorescenceγD crystallin (with chaperone)*100/ΔfluorescenceγD crystallin (without chaperone).

β2-microglobulin (β2m) = target: T2, β2-microglobulin (β2m) (Homo sapiens, UniProt P61769); assay: β2-microglobulin fibrillation ThT assay; conditions: five αB crystallin peptides and control
T2 construct: purchased MP Biomedical
Method: Addition of 5.8 μM αB crystallin peptides, ST, DR, LT, HG, and ER decreased the ThT fluorescence of β2m by 40-64%. When the concentration of the αB crystallin peptides was increased to 29 μM and 145 μM, no further decrease in ThT fluorescence was observed. The negative control peptide AT1 had no effect on β2m fibrillation even at a concentration as high as 290 μM. All five αB crystallin peptides inhibited β2m fibrillation at sub-stoichometric and stoichometric concentrations (5.8 μM and 29 μM).
The Thioflavin T (ThT) fluorescence of β2m in the presence of varying concentrations of αB crystallin peptides and controls was measured. […] When the concentration of the peptides was increased to 29 μM (1:1::peptide:β2m), the αB crystallin peptides decreased the ThT fluorescence by 35-65%. When the concentration of the peptides was increased further to 145 μM ([…]), the αB crystallin peptides decreased the ThT fluorescence by 13-27%. […] The formation and inhibition of β2-microglobulin fibrils was verified microscopically.
β2-microglobulin fibrillation ThT assays were performed as described previously. Raman et al., Biochem J 392:573-81, 2005; Ivanova et al., Proc Natl Acad Sci USA 101:10584-9, 2004. Peptides were dissolved to 2 mM in 0.25% DMSO and diluted accordingly, while β2-microglobulin was dissolved in 25 mM sodium acetate, 25 mM sodium phosphate, pH 2.4. For the 5:1::peptide:β2-microglobulin assay, 10 μL of 430 μM peptide was mixed with 10 μL of 86 μM β2-microglobulin, 7 μl of 25 mM sodium acetate, 25 mM sodium phosphate, pH 2.4 and 3 μL of 1 mM ThT. For the 1:1::peptide:β2-microglobulin assay, 10 μL of 86 μM peptide was mixed with 10 μL of 86 μM (2-microglobulin, 7 μl of 25 mM sodium acetate, 25 mM sodium phosphate, pH 2.4 and 3 μL of 1 mM ThT. For the 1:5::peptide:β2-microglobulin assay, 10 μL of 17.2 μM peptide was mixed with 10 μL of 86 μM β2-microglobulin, 7 μl of 25 mM sodium acetate, 25 mM sodium phosphate, pH 2.4 and 3 μL of 1 mM ThT. ThT fluorescence was measured using a Perkin Elmer Victor^3 V plate reader. Assays were performed in 384-well fluorescence plates in duplicates or triplicates. Samples were incubated at 37° C. ThT fluorescence was measured continuously for 180 minutes. The effect of the peptides and APS was calculated as percentage fibril formation relative to β2-microglobulin alone (100%) at the end of 180 minutes.

T2 sequence (P61769 21-119): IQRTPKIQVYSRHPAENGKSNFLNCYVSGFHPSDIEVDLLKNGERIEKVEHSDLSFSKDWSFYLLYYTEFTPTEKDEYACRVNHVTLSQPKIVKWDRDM

Sequence	percent protection against thermal aggregation of βH crystallin (βH crystallin)	Δfluorescence (γD crystallin) (γD crystallin)	effect on β2-microglobulin fibril formation, overall (β2-microglobulin (β2m))	effect on the fibrillization of γD crystallin (ranking) (γD crystallin; 72 hrs)
DRFSVNLDVKHFS	approximately 30%	661,038,176	–	–
ERTIPITRE	–	611,017,728	–	–
HGKHEERQDE	No protection	734,394,240	most effective inhibitors	–
LTITSSLSSDGV	–	675,352,992	most effective inhibitors	–
STSLSPFYLRPPSFLRAP	–	606,290,176	–	strongest effect

Reference: patent US20070185028A1, “Compositions and methods for treatment of protein misfolding and protein aggregation diseases” (priority 2004, published 2007)
